Data on 41 sequences can be found in the nanobody polyreactivity screen of Harvey et al. (2022).

The series is described as follows: yeast display, Sf9 membrane polyspecificity reagent, FACS + sequencing; frameworks hold sequencing errors. The method in brief:
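A synthetic nanobody library was expressed on Saccharomyces cerevisiae BJ5465 by galactose induction for 36–48 hours. The library was stained for 1 hour at 4 °C with 10% biotinylated, detergent-solubilized Sf9 membrane reagent and enriched with streptavidin microbeads before FACS. Low and high (top ~1%) gates were set on anti-HA fluorescence for expression and streptavidin fluorescence for reagent binding, and each polyreactivity label reflects the gate of origin.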
Consider “QVQLVESGGGLVQAGGSLRLSCAASGRIFSGYAMGWYRQAPGKERELVAAITSGASTNYADSVKGRFTISRDNAKNTVYLQMNSLKPEDTAVYYCAATYHTWRGQYLWYDYWGQGTQVTVSW”, for which the “polyreactivity (PSR sort gate)” value was “low polyreactivity”.

Regarding “QVQLVVSGGGLVQAGGTLRLSCAASGSILSDNGMGWYRQAPGKERELVASIRTGDITKYADCVKGRFTISRDNAKNTVDLQMTSLKPEDTAVYYCAAAGRVQYTRKYYGWRNRNDYWGQGTQVTVSS”, the “polyreactivity (PSR sort gate)” value is on record as “low polyreactivity”.

Consider “QVQLVESRGGLVQAGGSLRLSCAASGYAMGWYRQAPGKERELVAAITSGGSTNYADSVKGRFTISRDNAKNTVYLQMNSLKPVDTAVYYCAAAYSLYGHRYDYWGQGTQVTVSS”, for which the “polyreactivity (PSR sort gate)” value is listed as “high polyreactivity”.

With “QVQLVESGGGLVQAGGSLRLSCAASGSTFEQNAMGWYRQAPGKEREFVAAITGSGGSTYYADSVKGRFTISRDNAKNTVYLQMNSLKPEDTAVYYCAADIQDGLYWWDIYDYWGQGTQVTVSS”, the “polyreactivity (PSR sort gate)” value is given as “low polyreactivity”.

On to “QVQLVESGGGFVQAGGSLRLSGAASGSIFYCNAMGWYRQAPGKDRELVAAISYSGGSTYYADSVKGRFTLSRDTAKNTVYLQMNSLKPEDTAVSDGAAGPITLRYLTIYYTFDYWGQGTQVTVSS”, for which the “polyreactivity (PSR sort gate)” value was “high polyreactivity”.

As for “QVQLVESGGGLVQAGGSLRLSCAASGSIFRYYAMGWYRQAPGKERELVAVITGTGGSTYYADSVKGRFTISRDNAKNTVYLQMNSLKPEDTAVYYCNVYRPWGWFDYWGQGTQVTVSS”, the “polyreactivity (PSR sort gate)” value was “high polyreactivity”.

For the sequence “QVQLEESGGGLVQAGGSLRLSCAASGSIFVHNDMGWYRQAPGKERELVATIDSAGGTYYADSVKGRFTISRDNAKNTVYLQMNSLKPEDTAVYYCAAYGPYVLSIYDYWGQGTQVTVSS”, the “polyreactivity (PSR sort gate)” value is listed as “low polyreactivity”.

“QVQIVESGGGLVQAGGSLRLSCAASGRTFRANAMGWYRQAPGKERELVAAIRTGTRTYYADSVKGRFTISRDNANNTVYFQMNSLKTVDSAVYYCAARYYHPYSHGYWQERDYWGQGTKVTVSS”: the “polyreactivity (PSR sort gate)” value is reported as “high polyreactivity”.

On to “QVQLVESGGGLVQAGGSLRLSCAASGITFSHNAMGWSRPAPGKERELVAVIRWSGGRTYYADSVKGRFTISRDNAKNTVYLQMNSLKPEDTAVYYCAARPSTAFPYGKIMDYWGQGTQVTVSS”, for which the “polyreactivity (PSR sort gate)” value is given as “low polyreactivity”.

As for “QVQLVESGGGLVHAGGSLRLSCAASGSTFGDNAMRLYRQAPGKERELVAVISTAGSTYYADSVKGRFTISRDNAKNTVYLQMNSLKPEDTAVYYCAAAYYVWLYGFWYRRYDYWGQGTQVTVSS”, the “polyreactivity (PSR sort gate)” value is “low polyreactivity”.

For “QVQLVESGGGLVQAGGSLRLSCAASGSIFHPYGMGWYRQAPGKERELVARISWSTSSTNYADSVKGRFTISRDNAKNTVYLQMNSLKPEDTAVYYCAADYYVFPGYDYWGQGTQVTVSS”, the “polyreactivity (PSR sort gate)” value is given as “high polyreactivity”.

Turning to “QVQLVESGGGLVQAGGSLRISCASSVRILGVYFMGWYRQAPGKERELVAAISGGGRTNYADSVKGRFTISRDNAKNTVYFQMNRLNPEDTAVYYCNAERPYQFYQCIYSWYYYWGQGTQVTVSS”, the “polyreactivity (PSR sort gate)” value is “low polyreactivity”.

As for “QVQLVESGGGLVQAGGSLRLSCAASGSNFDDNAMGWYRQAPGKERELVAAITRSGGSTYYADSVKGRFTISRDNAKNTVYLQMISLKPEDTAVYYCAAAAYHSYGPGKRFYYWGQGSQVTVSS”, the “polyreactivity (PSR sort gate)” value was “high polyreactivity”.

“QVRLVESGGGLVQAGCSLRLSCAASGRTFGRYAIGWYRQAPGTERELVAAITGSGGSTYYADSVKGRFTISRDNAKNTVYLQMNSLKPVDTPVYYCNAGWRLGRGYWGQGTQVTLSS”: the “polyreactivity (PSR sort gate)” value is “high polyreactivity”.

As to “QVQLVESGGGLVQAGGSLRLSCAASGFNYRYYAMGWYRQAPGKERELVAAIDYSGGSTNYADSVKGRFTISRDNAKNTVYLQMNSLNPEDTAVYYCNAEYTWHRGYDYWGQGTQVTVSS”, the “polyreactivity (PSR sort gate)” value is on record as “low polyreactivity”.

For “QFQLVESGGGLVQAGGSLRLSCAASGRIFRSNAMVWYRQAPGKERELVAAISWSGGSTYYADSVKGRFTISRDNAKNTVYLQMNSLKPEDTAVFYCAARYRGSRYDYWGQGTQVTVSS”, the “polyreactivity (PSR sort gate)” value is given as “high polyreactivity”.

Consider “QVQLVESGGGLVQAGGSLRLSCDASGSIFRSYAMGWYRQAPGKERELVASITRSSGSTYYADSVKGRFTISRDNAKNTVYLQMNSLKPEDTAVYYCAAYTGVRGYYYWGQGTQVTVSS”, for which the “polyreactivity (PSR sort gate)” value was “high polyreactivity”.

On to “QVQLVESGGGLVQAGGSLRLSSAASGSTFYKYAMGWNRQTPGKERELVAPITGNSGSTYYADSVKGRFTISRDNAKNTVYLQMNSLKPEDTAVYYCAAARPRVWAFNYWGQGTQVTVSS”, for which the “polyreactivity (PSR sort gate)” value was “low polyreactivity”.

Regarding “QVQLVESGGGLVQAGGSLRLSCAASARIIYSNAMGWYRQAPGKERELVATISTGGSTYADSVKGRFTISRDNAKNTVYLQINSLKPEDTAVYYCAVDEWRWRVGAVAYYYWGQGTQVTVSS”, the “polyreactivity (PSR sort gate)” value is on record as “low polyreactivity”.

On to “QVQLVESGGGLVQAGGSLRLSCAASGSIFDGYAMGWYSQAPGKEREFVASIRFSTGRTYYADSVKGRFTISRDNAKNTVYFQMNSLKPEDTAVYYCNAPQGFVWRYSSWGPYDYWGQGTQVTVSS”, for which the “polyreactivity (PSR sort gate)” value is “high polyreactivity”.

Turning to “QVQLVESGGGLVQAGGSLRLSCAASGFTFNSYAMGWYRQAPGKERELVAAITSSGGRTYYADSVKGRFTISRDNAKNTVYLQMNSLKPEDTAVYYCAARRGGKVATIYDYWGQGTQVTVSS”, the “polyreactivity (PSR sort gate)” value is reported as “low polyreactivity”.

Consider “QVQLVESGGGLVQAGGCLRLSCAGSRSTFHYYTMGWYRQAPGKERELVAAISWRGTSTYYADSVKGRFTISRDNAKNTLYVQMNSLKPEDTGVYYCAVRSSPGAGYYYWGQGTQGTVSS”, for which the “polyreactivity (PSR sort gate)” value is reported as “high polyreactivity”.

Regarding “QVQLVESGGGLVQAGGSLRLSCAASGSIFAINAMGLYRQAPGKERELVARISWSGGRTYYADSVKGRFTISRDNAKNSVYLQMNSLKPEVTAVYYCAARYYWGQVTQVTVSS”, the “polyreactivity (PSR sort gate)” value was “high polyreactivity”.

Regarding “QVQLVESAGGLVQAGGSLRLSCAASGRIFPRYAMGWYRQAPGKERELVAAINTSGGRTYYADSVKGRFTISRDYAKNTVYLQMNSLKPEDTAVYFCAADYRSRYDYWGQGTQVTVSS”, the “polyreactivity (PSR sort gate)” value is given as “high polyreactivity”.

Turning to “QVQLVESGGGLVQAGRSLRLSCAASGRIFSDYAMGWYRQAPGKERELVATITSGDSTNYADSVKGRFTISRDNAKNTVYLQMNSLNPEDTAVYYCNADRFADYDYWGQGTQVTVST”, the “polyreactivity (PSR sort gate)” value is given as “low polyreactivity”.

“QVQLVESGGGLVQAGGSLRLSCAASGSIFAYNGMGGYRQPPGKERELVAAISRRGGSTTYADSVKGRFTISRDNAKNTVYLQMNSLKPEDTAVYYCNTGAWSVRKMYYWGQGTQVTVSS”: the “polyreactivity (PSR sort gate)” value is listed as “high polyreactivity”.

For “QVQLVESGGGLVQAGGSLRLSCAASGNIFGQYAMGWYRQAPGKEREFVAAITWSGGSTYYADSVKGRFTISRDNAKNTVYLQMNSLKPEDTAVYYCAADYGKTHRYDYDYWGQGTQVTVSS”, the “polyreactivity (PSR sort gate)” value is “low polyreactivity”.

As to “QVQLVESGGGLVQAGGSLRLSCAASGSIFIWNALGCYRQAPGKERELVAAIRSSGGTTYYADSVKGRFTISRDNAKYTVYVQMNSLKPEDTAVYYCARRGYSSSYRYPRYYYWGQGTQVTVSS”, the “polyreactivity (PSR sort gate)” value is listed as “high polyreactivity”.

For the sequence “QVQLVESGGSLVQAGGSLRLSCAASGRIFHNNAMGWYRQAPGKERELVAAISTGGSTNYADSVKGRFTISRDNAKNTVYLQMNSLTPEDTAVYYCAAEHPVTYPTSKFDYWGQGTQVTVSS”, the “polyreactivity (PSR sort gate)” value is given as “low polyreactivity”.

Regarding “QDQLVESAGGLVQAGGSLRLTCAASGFIFADNAMGWYRQAPGKERELVAGITSGGITYYADSVKGRFTISRDNAKNTVYLQMNCLKPEDTAVYYCNTTSYPEFDYWGHGTQVTVSS”, the “polyreactivity (PSR sort gate)” value is reported as “low polyreactivity”.

With “QVQLVESGGGLVQAGGSLRLSCAASGSTYRGNAMGWYRQAPGKEREFVAAITVSGGSTYYADSVKGRFTISRDNAKNTVFLQMNSLKPEDTAVYYCAARLTYNYYWGQGTQVTVSS”, the “polyreactivity (PSR sort gate)” value is “high polyreactivity”.

For “QVQIVESGGGLVQAGGSLRLSCAASVRTFGRYVMGWYRQAPGKERELVAAISSGGRTYYADSVKGRFTISRDNAKNTVYLQMNSLKPEDNAVYYCAVYVAYLYSYYYWGQGTQVTVSS”, the “polyreactivity (PSR sort gate)” value is on record as “low polyreactivity”.

Turning to “QVKLEESGGGLVQAGGSLRLSSAASGYTIGIYAMGWYRQAPGKERELVAAISADGGITYYADSVKGRFTISRDNAKNTVYLQMNSLKPEDTAFYYCNTLVDQDAYAGFRLDYWGQGSQVTVSS”, the “polyreactivity (PSR sort gate)” value is listed as “low polyreactivity”.

Consider “QVQLVESGGGLVQAGGSLRLSCAASGSTFRCYAMGWYRQAPGKERELVAAISRSGGSTYYADSVKGRFTISRDNAKNTVYLQMNSLKPEDTAVYYCNARSSKRSSRGYDYWGQGTQVTVSS”, for which the “polyreactivity (PSR sort gate)” value is reported as “high polyreactivity”.

As to “QVQLVESGGGLVQAGGSLRLSCAASGSIFSGYVMGWYRQAPGKERELVAAISGSGGSTYYADSVKGRFTISRDNAKNTVYLQMNSLNPEDTAVYYCNKGLSRSYWWVDYWGQGTQVTVSS”, the “polyreactivity (PSR sort gate)” value is given as “low polyreactivity”.

Consider “QVQLVESGGGLVQAGGSLRLSCAASGSTQRGYARGWYRQAPGKERELVASISRRGGSTYYADSVKGRFTISRDNAKNTVYLQMNSLKPEDTAVDYCAATGRRGYGYGYWGQGTQVTVSS”, for which the “polyreactivity (PSR sort gate)” value is “high polyreactivity”.

With “QDQLVDSGGGLVQAGGSLRLSCAASGTFFMGWYRQAPGKERELVAGISIYDGSTYYADSVKGRFTISRDNAKNTVYLQMNRLKPEDTAVYYCAAEFYPTTGFDYWGQGTQVTVSS”, the “polyreactivity (PSR sort gate)” value was “low polyreactivity”.

In the case of “QVQLVESGGGLVQAGGSLRLSCAASGFIFYYNAMGWYRQAPGKERELVARISSGSGTYYADSVKGRFTISRDNAKNTVYLQMNSLKPEDTAVYYCAARYPRGAMYYWGQGTQVTVSS”, the “polyreactivity (PSR sort gate)” value is “low polyreactivity”.

Take “QVQLVESGGGLVQAGGSLRLSCGASGFSFTRTAMGWYRQAPGKERELVAAISRGGSTNYADSVKGRFTISRDNAKITVYFQMNSLNPEDPSLYFCAKVRTRATPGVDYYYWGQGSQVTVSS”: the “polyreactivity (PSR sort gate)” value is reported as “high polyreactivity”.

“QVQLVESGGGLVQAGGSLRLSCAASGSTFRRYAMGWYRQAPGKERELVASITYRGGSTYYADSVKGRFTISRDNAKNTVYLQMNSLKPEDTAVYYCAKKGVYGPLNEYWGQGTQVTVSS”: the “polyreactivity (PSR sort gate)” value is listed as “high polyreactivity”.

As for “QVQLVESGGGLFQAGGSLRLSCAASGRIFQGYVMGRYRQAPGKERELVAVISRRGGITNYADSVKGRFTISSDNAKNSVYLQIYRLKPEDTAVYYCNSVTRVYNNGQYGYWGQGTQVTVSS”, the “polyreactivity (PSR sort gate)” value was “high polyreactivity”.
